Assay results reported in publication PMC9352680, “A comprehensive thermodynamic model for RNA binding by the Saccharomyces cerevisiae Pumilio protein PUF4”.

T1: PUF4 RNA-binding domain (Saccharomyces cerevisiae, UniProt P25339 537-888)
T1 sequence: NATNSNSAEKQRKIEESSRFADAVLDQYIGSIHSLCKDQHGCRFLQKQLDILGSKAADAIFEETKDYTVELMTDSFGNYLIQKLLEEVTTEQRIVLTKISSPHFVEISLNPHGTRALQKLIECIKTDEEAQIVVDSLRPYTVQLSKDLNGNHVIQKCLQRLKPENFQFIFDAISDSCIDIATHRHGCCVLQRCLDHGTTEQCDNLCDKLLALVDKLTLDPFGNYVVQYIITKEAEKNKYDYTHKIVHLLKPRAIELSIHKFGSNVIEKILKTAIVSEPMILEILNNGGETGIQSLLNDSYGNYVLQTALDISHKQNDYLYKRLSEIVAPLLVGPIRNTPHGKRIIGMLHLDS


Molecular target: T1, PUF4 RNA-binding domain
Experiment: Mg; RNA-MaP; 20 mM Na-HEPES pH 7.4, 30 mM KOAc, 0.75 mM MgCl2, 0.1% Tween-20, 5% glycerol, 0.1 mg/mL BSA, 2 mM DTT; 25 C; 0.0125-409.6 nM protein
Settings: tags: N-His6-TEV cleaved; C-SNAP kept, Cy3B-labelled; label: tethered on chip by stalled RNA polymerase

Point of comparison: UCUCUUUGUAUUAUCUUCUCUU (ssRNA) [Ic_S1_P5E.1_K5.1_C5.1_H5.1_A5.1_F5.1_[T9C]_[A10T]_T5.1], Kd 18 nM. Against it:
- UCUCUUAAACACUUAUUAUUUCUCUU (ssRNA) [Id_ii_S1_P5E.4_K5.3_C5.2_[C-2A]_[T-1A]_H5.3_A5.1_F5.1_T5.2_[A12T]] — higher, > 2300 nM
- UCUCUUAUACACUUAUUAGCUCUCUU (ssRNA) [Id_ii_S1_P5E.4_K5.3_C5.2_[C-2A]_H5.3_A5.1_F5.1_T5.2_[T11G]_[A12C]] — 36-fold higher, 647 nM
- UCUCUUACACACUUAUUAAAUCUCUU (ssRNA) [Id_ii_S1_P5E.4_K5.3_C5.2_[C-2A]_[T-1C]_H5.3_A5.1_F5.1_T5.2_[T11A]] — higher, > 2300 nM
- UCUCUUCGACACUUAUUAUCUCUCUU (ssRNA) [Id_ii_S1_P5E.4_K5.3_C5.2_[T-1G]_H5.3_A5.1_F5.1_T5.2_[A12C]] — higher, > 2300 nM
- UCUCUUACACACUUAUUAAUUCUCUU (ssRNA) [Id_ii_S1_P5E.4_K5.3_C5.2_[C-2A]_[T-1C]_H5.3_A5.1_F5.1_T5.2_[T11A]_[A12T]] — higher, > 2300 nM
- UCUCUUAAACACUUAUUACAUCUCUU (ssRNA) [Id_ii_S1_P5E.4_K5.3_C5.2_[C-2A]_[T-1A]_H5.3_A5.1_F5.1_T5.2_[T11C]] — higher, > 2300 nM
- UCUCUUUUACACUUAUUAUCUCUCUU (ssRNA) [Id_ii_S1_P5E.4_K5.3_C5.2_[C-2T]_H5.3_A5.1_F5.1_T5.2_[A12C]] — higher, > 2300 nM
- UCUCUUUAACACUUAUUAUCUCUCUU (ssRNA) [Id_ii_S1_P5E.4_K5.3_C5.2_[C-2T]_[T-1A]_H5.3_A5.1_F5.1_T5.2_[A12C]] — higher, > 2300 nM
- UCUCUUAAACACUUAUUAACUCUCUU (ssRNA) [Id_ii_S1_P5E.4_K5.3_C5.2_[C-2A]_[T-1A]_H5.3_A5.1_F5.1_T5.2_[T11A]_[A12C]] — higher, > 2300 nM
- UCUCUUCCACACUUAUUAGCUCUCUU (ssRNA) [Id_ii_S1_P5E.4_K5.3_C5.2_[T-1C]_H5.3_A5.1_F5.1_T5.2_[T11G]_[A12C]] — higher, > 2300 nM
- UCUCUUUUACACUUAUUAUGUCUCUU (ssRNA) [Id_ii_S1_P5E.4_K5.3_C5.2_[C-2T]_H5.3_A5.1_F5.1_T5.2_[A12G]] — higher, > 2300 nM
- UCUCUUCGACACUUAUUAACUCUCUU (ssRNA) [Id_ii_S1_P5E.4_K5.3_C5.2_[T-1G]_H5.3_A5.1_F5.1_T5.2_[T11A]_[A12C]] — higher, > 2300 nM
- UCUCUUAGACACUUAUUAUUUCUCUU (ssRNA) [Id_ii_S1_P5E.4_K5.3_C5.2_[C-2A]_[T-1G]_H5.3_A5.1_F5.1_T5.2_[A12T]] — higher, > 2300 nM
- UCUCUUUGUAUUAUAGUCUCUU (ssRNA) [Ic_S1_P5E.1_K5.1_C5.1_H5.1_A5.1_F5.1_[T9A]_[A10G]_T5.1] — 19-fold lower, 0.924 nM
- UCUCUUAGACACUUAUUACUUCUCUU (ssRNA) [Id_ii_S1_P5E.4_K5.3_C5.2_[C-2A]_[T-1G]_H5.3_A5.1_F5.1_T5.2_[T11C]_[A12T]] — higher, > 2300 nM
- UCUCUUAUACACUUAUUAUAUCUCUU (ssRNA) [Id_ii_S1_P5E.4_K5.3_C5.2_[C-2A]_H5.3_A5.1_F5.1_T5.2] — 18-fold higher, 330 nM
- UCUCUUAUACACUUAUUACAUCUCUU (ssRNA) [Id_ii_S1_P5E.4_K5.3_C5.2_[C-2A]_H5.3_A5.1_F5.1_T5.2_[T11C]] — 27-fold higher, 489 nM
- UCUCUUCCACACUUAUUACCUCUCUU (ssRNA) [Id_ii_S1_P5E.4_K5.3_C5.2_[T-1C]_H5.3_A5.1_F5.1_T5.2_[T11C]_[A12C]] — higher, > 2300 nM
- UCUCUUAGACACUUAUUAAUUCUCUU (ssRNA) [Id_ii_S1_P5E.4_K5.3_C5.2_[C-2A]_[T-1G]_H5.3_A5.1_F5.1_T5.2_[T11A]_[A12T]] — higher, > 2300 nM
- UCUCUUUGUAUUAUGCUCUCUU (ssRNA) [Ib_S1_P5E.1_K5.1_C5.1_H5.1_A5.1_F5.1_[T9G]_[A10C]_T5.1] — within 1.5-fold, 15.2 nM
- UCUCUUAUACACUUAUUACCUCUCUU (ssRNA) [Id_ii_S1_P5E.4_K5.3_C5.2_[C-2A]_H5.3_A5.1_F5.1_T5.2_[T11C]_[A12C]] — 34-fold higher, 606 nM
- UCUCUUAAACACUUAUUACUUCUCUU (ssRNA) [Id_ii_S1_P5E.4_K5.3_C5.2_[C-2A]_[T-1A]_H5.3_A5.1_F5.1_T5.2_[T11C]_[A12T]] — higher, > 2300 nM
- UCUCUUCGACACUUAUUAUUUCUCUU (ssRNA) [Id_ii_S1_P5E.4_K5.3_C5.2_[T-1G]_H5.3_A5.1_F5.1_T5.2_[A12T]] — higher, > 2300 nM
- UCUCUUACACACUUAUUAUUUCUCUU (ssRNA) [Id_ii_S1_P5E.4_K5.3_C5.2_[C-2A]_[T-1C]_H5.3_A5.1_F5.1_T5.2_[A12T]] — higher, > 2300 nM
- UCUCUUAUACACUUAUUACUUCUCUU (ssRNA) [Id_ii_S1_P5E.4_K5.3_C5.2_[C-2A]_H5.3_A5.1_F5.1_T5.2_[T11C]_[A12T]] — 37-fold higher, 666 nM
- UCUCUUUAACACUUAUUAAAUCUCUU (ssRNA) [Id_ii_S1_P5E.4_K5.3_C5.2_[C-2T]_[T-1A]_H5.3_A5.1_F5.1_T5.2_[T11A]] — higher, > 2300 nM
- UCUCUUAAACACUUAUUAUAUCUCUU (ssRNA) [Id_ii_S1_P5E.4_K5.3_C5.2_[C-2A]_[T-1A]_H5.3_A5.1_F5.1_T5.2] — higher, > 2300 nM
- UCUCUUUUACACUUAUUAUUUCUCUU (ssRNA) [Id_ii_S1_P5E.4_K5.3_C5.2_[C-2T]_H5.3_A5.1_F5.1_T5.2_[A12T]] — higher, > 2300 nM
- UCUCUUCCACACUUAUUACAUCUCUU (ssRNA) [Id_ii_S1_P5E.4_K5.3_C5.2_[T-1C]_H5.3_A5.1_F5.1_T5.2_[T11C]] — higher, > 2300 nM
- UCUCUUAAACACUUAUUAAUUCUCUU (ssRNA) [Id_ii_S1_P5E.4_K5.3_C5.2_[C-2A]_[T-1A]_H5.3_A5.1_F5.1_T5.2_[T11A]_[A12T]] — higher, > 2300 nM
